Reference: patent US20260049138A1 (Chugai, published 2026)
Numbering of substitutions follows the chain as printed. In names and notes the source's numbering stands.

B1: CE115HA000 H35A one-arm antibody (antibody, human IgG1, kappa, L234A L235A, N297A, name in Kabat numbering)
heavy: QVQLVESGGGVVQPGRSLRLSCAASGFTFSNAWMAWVRQAPGKGLEWVAQIKAKSNNYATYYAESVKGRFTISRDDSKNSLYLQMNSLKTEDTAVYYCRYVHYGAYYGVDAWGQGTTVTVSSASTKGPSVFPLAPSSKSTSGGTAALGCLVKDYFPEPVTVSWNSGALTSGVHTFPAVLQSSGLYSLSSVVTVPSSSLGTQTYICNVNHKPSNTKVDKKVEPKSCDKTHTCPPCPAPEAAGGPSVFLFPPKPKDTLMISRTPEVTCVVVDVSHEDPEVKFNWYVDGVEVHNAKTKPREEQYASTYRVVSVLTVLHQDWLNGKEYKCKVSNKALPAPIEKTISKAKGQPREPQVYTLPPSRCELTKNQVSLSCAVKGFYPSDIAVEWESNGQPENNYKTTPPVLDSDGSFFLVSKLTVDKSRWQQGNVFSCSVMHEALHNHYTQKSLSLSPDYKDDDDK
chain: EPKSSDKTHTCPPCPAPELLGGPSVFLFPPKPKDTLMISRTPEVTCVVVDVSHEDPEVKFNWYVDGVEVHNAKTKPREEQYNSTYRVVSVLTVLHQDWLNGKEYKCKVSNKALPAPIEKTISKAKGQPREPQVCTLPPSRDELTKNQVSLWCLVKGFYPSDIAVEWESNGQPENNYKTTPPVLDSDGSFFLYSKLTVDKSRWQQGNVFSCSVMHEALHNRYTQKSLSLSP
light: DIVMTQSPLSLPVTPGEPASISCRSSQSLVHSNRNTYLHWYQQKPGQAPRLLIYKVSNRFSGVPDRFSGSGSGTDFTLKISRVEAEDVGVYYCGQGTQVPYTFGQGTKLEIKRTVAAPSVFIFPPSDEQLKSGTASVVCLLNNFYPREAKVQWKVDNALQSGNSQESVTEQDSKDSTYSLSSTLTLSKADYEKHKVYACEVTHQGLSSPVTKSFNRGEC
B2: CE115HA000 A32Y one-arm antibody (antibody, human IgG1, kappa, L234A L235A, N297A, name in Kabat numbering)
heavy: B1 heavy with A32Y, A35H
chain: B1 chain
light: B1 light
B3: CE115HA000 A52aE one-arm antibody (antibody, human IgG1, kappa, L234A L235A, N297A, name in Kabat numbering)
heavy: B1 heavy with A35H, A53E
chain: B1 chain
light: B1 light
B4: CE115HA000 A52aD one-arm antibody (antibody, human IgG1, kappa, L234A L235A, N297A, name in Kabat numbering)
heavy: B1 heavy with A35H, A53D
chain: B1 chain
light: B1 light
B5: GLS3000 Y96D one-arm antibody (antibody, human IgG1, kappa, L234A L235A, N297A, name in Kabat numbering)
heavy: B1 heavy with A35H
chain: B1 chain
light: B1 light with Y101D
B6: GLS3000 Q45E one-arm antibody (antibody)
chain 1: B1 light with R50E
chain 2: B1 heavy with A35H
chain 3: B1 chain
B7: GLS3000 Y96F one-arm antibody (antibody, human IgG1, kappa, L234A L235A, N297A, name in Kabat numbering)
heavy: B1 heavy with A35H
chain: B1 chain
light: B1 light with Y101F
B8: GLS3000 Y96E one-arm antibody (antibody, human IgG1, kappa, L234A L235A, N297A, name in Kabat numbering)
heavy: B1 heavy with A35H
chain: B1 chain
light: B1 light with Y101E
B9: GLS3000 Y96H one-arm antibody (antibody, human IgG1, kappa, L234A L235A, N297A, name in Kabat numbering)
heavy: B1 heavy with A35H
chain: B1 chain
light: B1 light with Y101H
B10: GLS3000 Y96L one-arm antibody (antibody, human IgG1, kappa, L234A L235A, N297A, name in Kabat numbering)
heavy: B1 heavy with A35H
chain: B1 chain
light: B1 light with Y101L

The binders below were run against T1, CD3ε homodimer protein (human, UniProt P07766 23-126, limits assumed, sulfo-tag or biotin label in the ECL assays; amine-coupled to the chip in SPR) (assay: SPR Biacore T200; CD3ε homodimer on CM4 chip;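 further: Single-residue variant antibodies injected as analyte over CD3ε homodimer immobilized by amine coupling, run at 25 °C in HBS-EP+ buffer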).
T1 construct: also called human CD3ε homodimer protein; CD3 (CD3ε)
T1 sequence (P07766 23-126 limits assumed): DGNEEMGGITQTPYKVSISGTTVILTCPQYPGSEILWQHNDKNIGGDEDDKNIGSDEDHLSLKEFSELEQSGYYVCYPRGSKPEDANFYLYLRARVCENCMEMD
B1 was tested, and the “ratio of amounts bound Z=Y/X (altered form / CE115HA000)” value was 0.17.
In the case of B2, the “ratio of amounts bound Z=Y/X (altered form / CE115HA000)” value is reported as 0.33.
B3 was tested, and the “ratio of amounts bound Z=Y/X (altered form / CE115HA000)” value was 0.57.
For B4, the “ratio of amounts bound Z=Y/X (altered form / CE115HA000)” value was 1.34.

What follows are binders tested against T2, CD3ε homodimer protein (human, UniProt P07766 23-126, limits assumed) (assay: SPR Biacore T200, CD3ε homodimer on chip;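 further: Light-chain single-residue variant antibodies injected over amine-coupled CD3ε homodimer on a CM4 chip at 25 °C, bound amount divided by that of the GLS3000-containing antibody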).
T2 construct: also called CD3 (CD3ε)
T2 sequence (P07766 23-126 limits assumed): as above
In the case of B5, the “ratio of amount bound vs unaltered GLS3000” value (“ratio of amount bound” for short) is reported as 0.17.
In the case of B6, the “ratio of amount bound” value is reported as 0.75.
With B7 the “ratio of amount bound” value was 1.17.
For B8, the “ratio of amount bound” value was 0.17.
In the case of B9, the “ratio of amount bound” value is reported as 0.23.
In the case of B10, the “ratio of amount bound” value is reported as 0.32.
